Source: patent publication US20090022728A1 (RINAT NEUROSCIENCE, published 2009)
Substitutions are numbered along the chain they refer to.

B1: 9TL variant M31 Fab (Fab, V domains shown)
VH: QVQLVQSGAEVKKPGASVKVSCKASGYYTEAYYIHWVRQAPGQGLEWMGRIDPATGNTKYAPRLQDRVTMTRDTSTSTVYMELSSLRSEDTAVYYCASVYSLPVYWGQGTTVTVSS
VL: DVVMTQSPLSLPVTLGQPASISCKSSQSLLYSDAKTYLNWFQQRPGQSPRRLIYQISRLDPGVPDRFSGSGSGTDFTLKISRVEAEDVGVYYCLQGTHYPVLFGQGTRLEIKR
notes: Fab; human IgG2 CH1 and kappa CL
B2: 9TL variant M36 Fab (Fab, V domains shown)
VH: B1 VH with V99L, L102R
VL: B1 VL
notes: as for B1
B3: 9TL variant M53 Fab (Fab, V domains shown)
VH: B1 VH with V99L, Y105W
VL: B1 VL
notes: as for B1
B4: 9TL variant M40 Fab (Fab, V domains shown)
VH: B1 VH with V99L, L102T
VL: B1 VL
notes: as for B1
B5: 9TL variant W5 Fab (Fab, V domains shown)
VH: B1 VH with V99L
VL: B1 VL with Y31H, K35A, L102T
notes: as for B1
B6: 9TL variant W8 Fab (Fab, V domains shown)
VH: B1 VH with V99L
VL: B1 VL with Y31H, A34S, K35A, L102T
notes: as for B1
B7: 9TL variant M52 Fab (Fab, V domains shown)
VH: B1 VH with V99L, Y105F
VL: B1 VL
notes: as for B1
B8: 9TL variant M47 Fab (Fab, V domains shown)
VH: B1 VH with V99L, V104Q
VL: B1 VL
notes: as for B1
B9: 9TL variant M39 Fab (Fab, V domains shown)
VH: B1 VH with V99L, L102S
VL: B1 VL
notes: as for B1
B10: 9TL variant M50 Fab (Fab, V domains shown)
VH: B1 VH with V99L, V104F
VL: B1 VL
notes: as for B1
B11: 9TL variant M56 Fab (Fab, V domains shown)
VH: B1 VH with V99L, Y105V
VL: B1 VL
notes: as for B1
B12: 9TL variant M42 Fab (Fab, V domains shown)
VH: B1 VH with V99L, L102E
VL: B1 VL
notes: as for B1
B13: 9TL variant M41 Fab (Fab, V domains shown)
VH: B1 VH with V99L, L102Q
VL: B1 VL
notes: as for B1
B14: 9TL variant M37 Fab (Fab, V domains shown)
VH: B1 VH with V99L, L102A
VL: B1 VL
notes: as for B1
B15: 9TL variant M46 Fab (Fab, V domains shown)
VH: B1 VH with V99L, V104C
VL: B1 VL
notes: as for B1
B16: 9TL variant M43 Fab (Fab, V domains shown)
VH: B1 VH with V99L, V104I
VL: B1 VL
notes: as for B1
B17: 9TL variant M32 Fab (Fab, V domains shown)
VH: B1 VH with V99I
VL: B1 VL
notes: as for B1
B18: 9TL variant M51 Fab (Fab, V domains shown)
VH: B1 VH with V99L, Y105H
VL: B1 VL
notes: as for B1
B19: 9TL variant M35 Fab (Fab, V domains shown)
VH: B1 VH with V99L, S101G
VL: B1 VL
notes: as for B1
B20: 9TL variant M55 Fab (Fab, V domains shown)
VH: B1 VH with V99L, Y105I
VL: B1 VL
notes: as for B1
B21: 9TL variant M49 Fab (Fab, V domains shown)
VH: B1 VH with V99L, V104N
VL: B1 VL
notes: as for B1
B22: 9TL variant M38 Fab (Fab, V domains shown)
VH: B1 VH with V99L, L102V
VL: B1 VL
notes: as for B1
B23: 9TL variant M48 Fab (Fab, V domains shown)
VH: B1 VH with V99L, V104S
VL: B1 VL
notes: as for B1
B24: 9TL variant W1 Fab (Fab, V domains shown)
VH: B1 VH with V99L
VL: B1 VL with Y31A, A34S, L102T
notes: as for B1
B25: 9TL variant M54 Fab (Fab, V domains shown)
VH: B1 VH with V99L, Y105S
VL: B1 VL
notes: as for B1

biological target: T1, biotinylated Aβ1-40 peptide (biotinylated (N-biotinylated in Example 7)); assay: SPR, Fab over Aβ1-40 on SA chip; KD=koff/kon
T1 construct: captured on streptavidin (SA) chip; also called Biotinylated Aβ peptide 1-40; Aβ1-40 on SA chip
Description: (§1) Affinities of 9TL Fab fragment and its variants Fab fragments were determined by Surface Plasmon Resonance (SPR) system (BIAcore 3000™, BIAcore, Inc., Piscaway, N.J.). SA chips (streptavidin) were used according to the supplier's instructions. Biotinylated Aβ peptide 1-40 was diluted into HBS-EP (10 mM HEPES pH 7.4, 150 mM NaCl, 3 mM EDTA, 0.005% P20) and injected over the chip at a concentration of 0.005 mg/mL. Using variable flow time across the individual chip channels, two ranges of antigen density were achieved: 10-200 response units (RU) for detailed kinetic studies and 500-600 RU for concentration studies and screening. […] HBS-EP buffer was used as running buffer for all the BIAcore assays. […] The concentrations of the Fab proteins were determined by ELISA and/or SDS-PAGE electrophoresis using a standard Fab of known concentration (determined by amino acid analysis). Kinetic association rates (kₒₙ) and dissociation rates (koff) were obtained simultaneously by fitting the data to a 1:1 Langmuir binding model (Karlsson, R. Roos, H. Fagerstam, L. Petersson, B. (1994). Methods Enzymology 6. 99-110) using the BIAevaluation program. Equilibrium dissociation constant (KD) values were calculated as koff/kₒₙ.
(§2) All amino acid substitutions of the variants shown in Table 3 are described relative to the sequence of 9TL. KD and other kinetic parameters were determined by BIAcore analysis described above with Aβ₁₋₄₀ immobilized on SA chip.

T1 sequence (peptide, as listed by the source): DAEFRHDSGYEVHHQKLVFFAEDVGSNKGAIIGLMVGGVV

Binder	Kd [nM]
B1	31.4
B2	2.83
B3	4.09
B4	14.2
B5	12.6
B6	11.9
B7	4.09
B8	62.9
B9	7.23
B10	84.9
B11	11
B12	47.2
B13	31.4
B14	2.89
B15	62.9
B16	0.94
B17	62.9
B18	2.7
B19	28.3
B20	9.43
B21	81.8
B22	4.72
B23	81.8
B24	28.3
B25	7.55

biological target: T1, biotinylated Aβ1-40 peptide; assay: SPR, Fab over Aβ1-40 on SA chip
Description: as §1, §2

Binder	koff [s⁻¹]
B1	0.01
B2	0.0009
B3	0.0013
B4	0.0045
B5	0.004
B6	0.0038
B7	0.0013
B8	0.02
B9	0.0023
B10	0.027
B11	0.0035
B12	0.015
B13	0.01
B14	0.00092
B15	0.02
B16	0.0003
B17	0.02
B18	0.00086
B19	0.009
B20	0.003
B21	0.026
B22	0.0015
B23	0.026
B24	0.009
B25	0.0024

biological target: T1, biotinylated Aβ1-40 peptide; assay: SPR, Fab over Aβ1-40 on SA chip; kon may be assumed = 9TL (footnote 2)
Description: as §1, §2

Binder	kon [M⁻¹ s⁻¹]
B1	318000
B2	318000
B3	318000
B4	318000
B5	318000
B6	318000
B7	318000
B8	318000
B9	318000
B10	318000
B11	318000
B12	318000
B13	318000
B14	318000
B15	318000
B16	318000
B17	318000
B18	318000
B19	318000
B20	318000
B21	318000
B22	318000
B23	318000
B24	318000
B25	318000
